# ± gives the standard deviation of the averaged measurements.
# Tested on: ATP
# Test: switch fluorescence ratio, 500 uM ATP over buffer (Cy3 cluster intensity, sum of 5 cycles each) (fold (ratio)); higher = stronger signal-on switching upon ATP binding; sequences stand for … in TCGTCGGCAGCGTCAGATGTGTATAAGAGACAGTTTTTTTTTTTTTTTTTTTTTTTTT…TC
# Settings: aptamer strand: ATP DNA aptamer (quencher-CACCTGGGGGAGTATTGCGGAGGAAGG + anchor), 100 nM annealed; ATP concentration: 500 uM
# Outline: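 Switching-strand clusters labelled with Cy3 on a modified Illumina MiSeq flow-cell were annealed to 100 nM quencher-labelled ATP aptamer, imaged in selection buffer, and re-imaged after 15 min with 500 uM ATP at 22 °C. This was done over five cycles with NaOH stripping and re-annealing in between. The fluorescence ratio is summed target-cycle over summed buffer-cycle Cy3 intensity per cluster, averaged per switch-domain sequence, excluding clusters outside 100-1000 RFU.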
# 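Note: ATP exposure 15 min at 22 °C before imaging.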
row,Sequence,switch fluorescence ratio
1,AACAGGGTCT,0.991 ± 0.038
2,GGGACATGGG,0.972 ± 0.041
3,AGATATAATA,1.02 ± 0.035
4,ATGGATTCTG,1.07 ± 0.091
5,CGAGAGAGTG,0.96 ± 0.02
6,ATTTGCGTTT,0.999 ± 0.019
7,TCGGGGGTCA,0.9781 ± 0.0051
8,CCTGTTGGTT,0.955 ± 0.033
9,AGTTGGGGAC,1.012 ± 0.0071
10,TTGGTGTCGC,1.016 ± 0.0034
11,TACGATGGTA,0.9792 ± 0.0049
12,ATTATTGCGT,1.03 ± 0.04
13,CAGGTTGGTT,1 ± 0.027
14,CCGGGGGTGC,1.24 ± 0.27
15,GTCGTAGGAT,0.9915 ± 0.0065
16,CTAGCAACGC,1.08 ± 0.028
17,TAGGGGCCTA,0.995 ± 0.011
18,TAAATGGTCC,1.073 ± 0.0063
19,GAACATGCAG,1.01 ± 0.03
20,TCTTGAACTT,1 ± 0.018
21,TGAATGATC,1 ± 0.043
22,CCTAGGGGGT,1.02 ± 0.029
23,GGTATGGAGC,0.971 ± 0.039

row,Sequence,switch fluorescence ratio
1,CATGATCTCT,0.987 ± 0.071
2,TTCGTTGGCT,1.16 ± 0.23
3,TCCGAGCCTT,2.08 ± 0.12
4,CTCATTGGGC,0.991 ± 0.027
5,AAGGCGACGT,0.994 ± 0.015
6,ACAAGCTGAC,1.27 ± 0.15
7,ATAAGTTGCT,0.968 ± 0.024
8,AGGGTAGGGG,0.994 ± 0.03
9,AACGCTGGCG,0.966 ± 0.028
10,GGCGCAGGAG,1.092 ± 0.0082
11,GCAGATGCCT,1 ± 0.023
12,CGACGAACTT,1.236 ± 0.0059
13,AGAATTCCGT,0.992 ± 0.01
14,TCGTGGTGGT,0.974 ± 0.018
15,CGCTGAGTTT,0.993 ± 0.021
16,CTTATATGAG,1.001 ± 0.0025
17,TACCATGGCG,0.9983 ± 0.0058
18,GGCCCGGCAC,1.01 ± 0.013
19,TTACAGGGAG,1.02 ± 0.01
20,GGGGTCAGGA,1.03 ± 0.029
21,AACCAATAGC,1.1 ± 0.035
22,TGATGGGTTG,1 ± 0.03
23,CAGTGCGGCT,1.007 ± 0.0046

row,Sequence,switch fluorescence ratio
1,AAGTACAGGC,1.27 ± 0.12
2,AGGGGCGGGG,0.995 ± 0.029
3,ATTGAGTTTA,0.99883 ± 7e-05
4,AATGGGTTCA,1.021 ± 0.0062
5,TTGTTTCGGT,1.02 ± 0.063
6,TTTCTAAGGA,0.978 ± 0.017
7,GTTTTTTAAA,0.987 ± 0.04
8,GCGTTTTACT,1.034 ± 0.0051
9,AAGCTTTCGT,1.03 ± 0.014
10,TATAGGCCTC,1.001 ± 0.0064
11,GGGTAAGAAA,0.9865 ± 0.0041
12,TTTGATATCC,1 ± 0.017
13,ATTGTTTTGA,0.9818 ± 0.0088
14,TTTTGAGATG,0.999 ± 0.024
15,GCATGCATTG,0.97797 ± 0.0001
16,CACCCATTGC,1.584 ± 0.0038
17,TTTTACAGTA,1.07 ± 0.022
18,GCACTAGGGA,0.9908 ± 0.0062
19,ATTTCGTGGT,0.9759 ± 0.0096
20,GGTTATAAGT,0.975 ± 0.034
21,TTTTTAAGCT,1.02 ± 0.019
22,TTTGATGGGA,1.025 ± 0.0068
23,ATACACGGCA,1.11 ± 0.03

row,Sequence,switch fluorescence ratio
1,TTGCATGCCG,0.972 ± 0.036
2,AATGTCATCA,0.993 ± 0.013
3,GCGTGTTGTG,1.02 ± 0.018
4,GAGTTGTTGG,0.968 ± 0.024
5,GGCGAGGGCT,0.982 ± 0.051
6,GTCACTTATT,1.036 ± 0.0058
7,AAAAGGTTTG,1.022 ± 0.0081
8,CGTGTGGTGT,1.03 ± 0.04
9,TTGAAGGGGC,0.997 ± 0.055
10,CCGGGGGCGG,1.01 ± 0.015
11,TCATGCCAAC,1.03 ± 0.011
12,AGTGGGTGTT,1.01 ± 0.045
13,CGGAACGCTC,1.71 ± 0.025
14,TTTTACACAT,1.025 ± 0.0057
15,ATGCGGGTTT,1.02 ± 0.018
16,TAGGGCGGGA,0.946 ± 0.052
17,CTGTCCATCC,1.11 ± 0.035
18,GTACGGGGGA,1.002 ± 0.0056
19,ATTTGTTTTG,0.997 ± 0.053
20,TTTGGCCCCG,0.9612 ± 0.0093
21,GAGGGTTTTA,1 ± 0.016
22,TAGCTGAGGG,0.997 ± 0.015
23,AGTGGGGAGA,1.02 ± 0.035

row,Sequence,switch fluorescence ratio
1,GGACTCTCGG,0.967 ± 0.024
2,TGCTAGGGTT,1 ± 0.032
3,TATGTACACA,1.02 ± 0.059
4,CGGGAGAGGT,0.988 ± 0.011
5,CATACGGTTT,1.05 ± 0.024
6,CGCGTGCAGG,1.02 ± 0.033
7,TTTGCATGCT,1.024 ± 0.0036
8,AGCCGGGTAT,1.01 ± 0.016
9,ATTTACATTT,1.02 ± 0.011
10,CTGTGGGGGG,0.9869 ± 0.0097
11,GGTTTCCGGG,1.01 ± 0.035
12,GGGAAGGTTA,0.993 ± 0.017
13,TATTTTTATC,1.03 ± 0.018
14,GGTGTGTGAC,0.999 ± 0.016
15,CCGGGATCAG,1.09 ± 0.035
16,TCGTTAGGGG,0.999 ± 0.019
17,ATTAGCAATG,1.354 ± 0.006
18,CTCGTCTGAG,1 ± 0.023
19,TTTTAGGGCG,0.976 ± 0.048
20,TCCAAGGGGT,1.06 ± 0.044
21,ACGGGTTCCA,1.08 ± 0.13
22,TATGTTTATT,1.03 ± 0.011
23,AAAAACGTAA,1.1 ± 0.061

row,Sequence,switch fluorescence ratio
1,TTTGGCTCTG,1.03 ± 0.025
2,TGTTGGAGCG,0.969 ± 0.011
3,TTAATCAGGT,1.01 ± 0.016
4,CAGTTAAAAA,1.03 ± 0.012
5,CCGGTTTGTC,1.02 ± 0.044
6,CATAGATTTT,0.98896 ± 0.00042
7,TTGCACCCGT,1.04 ± 0.053
8,TTCGAGCATT,1.39 ± 0.17
9,TGAACGGGTG,1.04 ± 0.068
10,GCTTGGAGGG,0.983 ± 0.027
11,GGGGCTTGTA,1 ± 0.016
12,GATCCGAGAC,1.516 ± 0.0088
13,CAGCTCTAAG,1 ± 0.013
14,GTGGTCTCCG,0.982 ± 0.038
15,ACCGCGCGAC,2.49 ± 0.053
16,CACGGATGTT,1.02 ± 0.093
17,TATCAGTAGT,1.016 ± 0.0028
18,GTGCCTAGTG,1.017 ± 0.01
19,CGGTTTGGCA,0.992 ± 0.014
20,AAACTGAATA,1.03 ± 0.016
21,GCTAATTGGG,1.004 ± 0.0021
22,AGCTAATCGT,1.01 ± 0.014
23,CGCATGGGCC,1.4 ± 0.019

row,Sequence,switch fluorescence ratio
1,CGTGATGATT,0.9809 ± 0.0078
2,ATGGGCCGGG,0.9955 ± 0.0074
3,TTAATTAATG,1.05 ± 0.089
4,AAATATAAGC,1.03 ± 0.044
5,GCGTGTTCGT,1.031 ± 0.0084
6,CGGTACACGT,1.0186 ± 0.00031
7,GGGGAAGTAG,0.994 ± 0.018
8,TCGGTAAATT,1.05 ± 0.014
9,TTGCGAATGT,0.997 ± 0.038
10,AAGTGCGACC,1.03 ± 0.057
11,ACAGGTCATT,1.01 ± 0.034
12,GGGGTCGGGG,1.03 ± 0.041
13,TTACTTTTGT,1.021 ± 0.0039
14,TTGCTGCAAA,1.1 ± 0.12
15,TTTCCTGGAT,1.04 ± 0.052
16,TTTGCTTTCC,1.2 ± 0.17
17,TAGGGTAGTT,1.02 ± 0.071
18,TCCACTCTTC,0.991 ± 0.024
19,ACATCAGATG,1.005 ± 0.0023
